We go through 2 molecules from patent US20220220200A1 (NANJING IASO BIOTECHNOLOGY, published 2022).

For assay [1], the target named is T1, Streptavidin (UniProt P22629 37-163, limits assumed).
T1 construct: Plate coating in the phage ELISA, tested as a control antigen; also called Strepavidin
Kind of assay: phage ELISA, streptavidin-coated plate. The method, then:
(§1) In ELISA preliminary screening, the streptavidin-biotin binding allowed the biotinylated target protein (CD19-hFc-Bio) and the control protein (BCMA-hFc-Bio) to be closer to native antigen conformation in the reaction solution. Clones that only bound to CD19-hFc-Bio but not to BCMA-hFc-Bio and streptavidin were considered specific. The FACS preliminary screening was performed using a cell line Raji with high expression of CD19 and Raji-CD19ko with knockout of CD19 molecules, and clones that only bind to Raji cells but not to Raji-CD19ko cells were considered specific. Through the two preliminary screenings based on ELISA and FACS respectively, we could obtain candidate antibodies that can not only bind to the recombinantly expressed CD19 protein but also recognize the native CD19 molecules on the cell surface for further screening.
(§2) Monoclonal antibodies were randomly selected from the enriched phage antibody pool, packaged into phages, and the binding of the monoclonal phage to CD19-hFc-Bio protein and BCMA-hFc-Bio protein was detected by phage ELISA to find CD19-specific phage antibody clones. Control 1 is FMC-63 ([…] anti-human CD19 phage antibody clone); and control 2 is non-CD19-bound scFv phage antibody clone. […]

The target in assay [2] is T2, Biotinylated Human BCMA/TNFRSF17 Protein, Fc Tag, Avi Tag (BCMA-hFc-Bio) (human, UniProt Q02223 1-54, biotinylated (Avitag)).
T2 construct: Bought protein; also called control antigen BCMA; unrelated antigen BCMA; not shown: Fc tag (hFc) and Avi tag
T2 sequence (looked up): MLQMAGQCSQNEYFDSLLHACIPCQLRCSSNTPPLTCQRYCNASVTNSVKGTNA
Kind of assay: phage ELISA, biotinylated antigen on streptavidin plate. The method, then:
as §1, §2
In general terms: In an ELISA, binding on a coated surface is turned into a signal by an enzyme label.

T1 sequence (P22629 37-163 limits assumed): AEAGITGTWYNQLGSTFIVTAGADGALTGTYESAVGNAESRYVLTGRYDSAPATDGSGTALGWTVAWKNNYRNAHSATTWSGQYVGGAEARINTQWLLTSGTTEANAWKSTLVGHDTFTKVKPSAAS

B1: #78 scFv phage antibody clone (scFv)
scFv: QAVLTQPPSVSEAPRQRVTISCSGSSSNIGNNAVSWYQQLPGKAPKLLIYYDDLLPSGVSDRFSGSKSGTSASLAISGLQSEDEADYYCAAWDDSLNGWVFGGGTKVTVLGSRGGGGSGGGGSGGGGSLEEVQLVQSGAEVKKPGESLKISCKGSGYSFTSYWIGWVRQMPGKGLEWMGIIYPGDSDTRYSPSFQGQVTISADKSISTAYLQWSSLKASDTAMYYCARLSYSWSSWYWDFWGQGTLVTVSS
notes: The phage coat fusion is not described; also called clone #78; phage #78
In the case of B1, the binding result in assay [1] and in assay [2] was “no binding” throughout.

B2: #62 scFv phage antibody clone (scFv)
scFv: QSVVTQPPSVSGAPGQRVTISCTGSSSNIGAGYDVHWYQQLPGTAPKLLIYENTNRPSGVPDRFSGSKSGTSASLAITGLQAEDEADYYCQSYDSSLSGWRVFGGGTKLTVLGSRGGGGSGGGGSGGGGSLEMAEVQLVQSGAEVKKPGESLKISCKGSGYSFTNSWIGWVRQMPGKGLEWMGLIYPDDSDTRYSPSFQGQVTISADSAINTAYLQWSSLKASDTAMYYCARQSTYIYGGYYDTWGQGTLVTVSS
notes: The phage coat fusion is not described; also called clone #62; phage #62
For the molecule B2, the binding result in assay [1] and in assay [2] was “no binding” each time.
